Patent US9814672B2, “Echogenic vehicle for clinical delivery of plasminogen activator and other fibrin-binding therapeutics to thrombi” (priority 2007, dated 2017)
Read-outs that look alike come from different tables or passages of the source. One block for each substance: values may come before it.

Legend:
fibrin [1] = molecular target: T1, fibrin (Homo sapiens, UniProt P02671+P02675+P02679); test: Two-stage fibrin pad ELISA, Scatchard and van't Hoff analysis; type: binding; conditions: for Avidity: Kassoc × no. ligand molecules/liposome; for Kassoc: detergent-treated preparation
T1 construct: purchased Calbiochem (EMD Biosciences, Inc., La Jolla, Calif.)
T1 sequence (P02671 36-629 limits assumed): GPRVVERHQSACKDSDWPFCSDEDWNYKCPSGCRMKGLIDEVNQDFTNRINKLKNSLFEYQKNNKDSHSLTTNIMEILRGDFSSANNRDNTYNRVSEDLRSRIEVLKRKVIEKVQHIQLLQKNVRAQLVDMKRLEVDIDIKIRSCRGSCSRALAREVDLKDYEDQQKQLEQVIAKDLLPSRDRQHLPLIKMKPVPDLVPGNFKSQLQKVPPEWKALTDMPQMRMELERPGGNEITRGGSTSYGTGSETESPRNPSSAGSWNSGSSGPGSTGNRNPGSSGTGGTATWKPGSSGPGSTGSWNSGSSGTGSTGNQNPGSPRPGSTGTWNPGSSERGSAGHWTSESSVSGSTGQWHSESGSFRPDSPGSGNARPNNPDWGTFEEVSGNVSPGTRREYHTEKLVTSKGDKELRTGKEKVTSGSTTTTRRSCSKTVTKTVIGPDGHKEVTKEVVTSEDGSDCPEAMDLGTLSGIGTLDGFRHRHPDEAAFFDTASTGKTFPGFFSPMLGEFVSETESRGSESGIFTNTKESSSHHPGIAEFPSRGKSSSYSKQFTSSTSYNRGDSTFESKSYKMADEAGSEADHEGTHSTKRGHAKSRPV
T1 sequence (P02675 45-491 limits assumed): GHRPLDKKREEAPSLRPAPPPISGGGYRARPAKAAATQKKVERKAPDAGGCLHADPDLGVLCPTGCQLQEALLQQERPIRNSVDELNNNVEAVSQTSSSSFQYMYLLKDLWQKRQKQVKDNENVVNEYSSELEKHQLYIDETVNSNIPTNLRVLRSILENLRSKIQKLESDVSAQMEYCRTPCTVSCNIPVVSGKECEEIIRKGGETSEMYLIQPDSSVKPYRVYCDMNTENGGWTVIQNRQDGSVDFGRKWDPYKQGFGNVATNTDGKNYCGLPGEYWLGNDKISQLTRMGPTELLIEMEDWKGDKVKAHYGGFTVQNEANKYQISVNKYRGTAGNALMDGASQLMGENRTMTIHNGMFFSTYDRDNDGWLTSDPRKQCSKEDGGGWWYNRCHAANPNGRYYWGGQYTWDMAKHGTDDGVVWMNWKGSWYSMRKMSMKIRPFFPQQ
T1 sequence (P02679 27-437 isoform P02679-2 limits assumed): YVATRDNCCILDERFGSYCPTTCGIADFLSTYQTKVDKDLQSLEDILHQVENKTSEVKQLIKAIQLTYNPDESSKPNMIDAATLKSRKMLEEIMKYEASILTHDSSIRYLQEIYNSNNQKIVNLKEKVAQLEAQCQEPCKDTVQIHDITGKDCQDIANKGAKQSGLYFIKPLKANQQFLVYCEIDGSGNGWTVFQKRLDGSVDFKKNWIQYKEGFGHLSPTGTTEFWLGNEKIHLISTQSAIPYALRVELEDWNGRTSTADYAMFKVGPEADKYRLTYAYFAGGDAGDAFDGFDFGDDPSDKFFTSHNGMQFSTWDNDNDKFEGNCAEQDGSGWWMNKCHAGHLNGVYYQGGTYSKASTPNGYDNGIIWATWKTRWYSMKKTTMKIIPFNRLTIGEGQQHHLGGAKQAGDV
Protocol: Added 100 μl 0.2% BSA/PBS to each well and incubated at 37° C. for 1 hour. All subsequent incubations were also at 37° C. Aspirated the wells and washed the plate 3× with PBS-T. Added Activase dilutions (10, 5, 2.5, 1.25, and 0.625 μg/ml PBS-T) to replicate wells ([…]). Incubated for 2 hours. Removed the contents of each well and pooled all samples within each dilution. Stored pooled samples at 4° C. For tPA-ELIP dilutions (in PBS), the third wash before adding the samples was with PBS. Stored the pooled tPA-ELIP samples in polypropylene tubes.
Added monoclonal anti-tPA capture antibody (Ab) (5 μg/ml coating buffer; […]) to rows B, C, E and G of a fresh microplate. Incubated in a humidified chamber at 4° C. overnight. All subsequent incubations were in humidified chambers at 37° C. at volumes of 50 μl/well, followed by aspiration of wells and 3× washes with PBS-T. Blocked all rows with conjugate buffer for 1 hour. Added tPA standards (50, 25, 12.5, 6.25 and 3.13 ng/ml) and pooled sample dilutions (in PBS-T) in duplicate to sample (B, C, E, G) and background (A, D, F, H) wells. Incubated for 2 hours. Added secondary detection Ab (10 μg sheep anti-tPA/ml 0.1% BSA in PBS-T) to all wells and incubated 1 hour, followed by a conjugate incubation (3,000× diluted with conjugate buffer; 1 hour). Added 50 μl of substrate buffer+500 of substrate (1 tablet/5 ml substrate buffer) to each well. Incubated at 37° for 15 minutes. Immediately quenched with 5 μl of 1M sodium hydroxide/well. Read the plate at 405 nm. Determined net absorbance (A405) by subtracting background OD from sample OD (e.g., B4-A4 or E7-F7).
Calculated the undiluted tPA concentrations of each pooled sample from the standard curve. These represented the free fractions ([F]) of the sample dilutions after equilibrium incubation with fibrin. Obtained the bound concentrations ([B]) by subtracting the free values from the total tPA concentration of the starting dilutions. Prepared Scatchard plots by plotting [B] (x-axis) vs. B/F (y-axis). The slope=−Kassoc and the y-intercept=Kassoc[n], where [n] was the concentration of exposed tPA binding sites on the fibrin pads.
Dilutions of untreated, sham-treated (control) and PPACK-treated (tPA(P)) tPA, as well as tPA(P) conjugated to ELIP (tPA(P)-ELIP), were incubated on replicate fibrin pads, prepared in microplate wells according to a modification of the method of Edgell et al. (1996). Human thrombin was added to a solution of 0.5 mg/ml of human fibrinogen in 0.02M phosphate-buffered saline, pH 7.4 (PBS), to a final concentration of 0.125 IU thrombin/ml; 100 μl of this solution was immediately added to each well and incubated at 37° C. for 45 minutes, followed by overnight drying of the plate at 45° C. After incubation with 100 μl/well of 0.2% BSA in PBS for 1 hour, samples (100 μl/well) were incubated for 2 hours at 37° C. For thermodynamic analyses, this incubation was performed at three temperatures (5, 24 and 37° C.). In order to determine the concentration of free tPA remaining in solution after incubation of tPA with fibrin, from which the concentration of bound tPA could be calculated for Scatchard analysis, the contents of duplicate wells were recovered, pooled and subsequently assayed for immunoreactive tPA in a standard quantitative sandwich ELISA.
Briefly, Nunc MaxiSorp microtiter plates were coated with 5 μg/ml of a monoclonal anti-tPA capture antibody (Ab) in 0.05M sodium bicarbonate, pH 9.6, overnight at 4° C. All incubation volumes were 50 μl/well. One-half of wells were left uncoated for determination of nonspecific binding. After aspirating well contents, all wells were blocked with conjugate buffer (1% BSA in 0.05M Tris buffer, pH 8.0, with 0.02% sodium azide) for 1 hour. From this point, all incubations were at 37° C. Each incubation was followed by aspiration of well contents and washes (3×) with PBS-T (PBS with 0.05% Tween 20). […]

[2] = tPA enzyme activity after PPACK inactivation, paranitroanilide-substrate method; type: biochemical; conditions: S.E., n=3
Protocol: Reconstituted tPA was incubated with a fivefold molar excess of PPACK in 0.2 M L-arginine in 0.05M phosphate buffer, pH 7.2, with 0.01% Tween 20 for 1 hour at room temperature, followed by dialysis against reaction buffer to remove unreacted PPACK. A control preparation was carried through the procedure without PPACK and all procedures involving PPACK were protected from light. Enzyme activity in PPACK-treated and control tPA preparations was measured with a […] paranitroanilide-substrate method (Ranby and Wallen, 1981).

fibrin [3] = molecular target: T1, fibrin; test: Two-stage fibrin pad ELISA, Scatchard and van't Hoff analysis; conditions: undiluted fresh-frozen rabbit serum, 37° C.; read-out: binding affinity (KD) in serum

cross-reactivity with fibrin (fibrin [1]; competition with tPA samples, Example 12): 5%
Substance: Fibrinogen [reference compound]

Kd (fibrin [1]; S.E., n=3, read-out: High-Affinity KD @ 37° C.): 5.92 nM
Percent Starting Activity [2]: 99.8%
Substance: Sham (Control): tPA control preparation carried through the inactivation procedure without PPACK [reference compound]

Avidity (fibrin [1]; +Tween 20): 0.151 M^−1/LIP × 10^12
Avidity (fibrin [1]; No Detergent): 0.480 M^−1/LIP × 10^12
ΔS° (fibrin [1]; high affinity only): +14.7 cal/mole°
ΔG° (fibrin [1]; high affinity only, 278 K): -11.1 kcal/mol
Kassoc (fibrin [1]; high affinity only, 278 K): 5.83e+08 M⁻¹
ΔG° (fibrin [1]; high affinity only, 297 K): -11.5 kcal/mol
Kassoc (fibrin [1]; high affinity only, 297 K): 3.01e+08 M⁻¹
ΔG° (fibrin [1]; high affinity only, 310 K): -11.6 kcal/mol
Kassoc (fibrin [1]; high affinity only, 310 K): 1.51e+08 M⁻¹
ΔH° (fibrin [1]; high affinity only, van't Hoff plot): -7.08 kcal/mol
Kd (fibrin [1]; thiolation buffers: +Tween 20, read-out: KD @ 37° C.): 6.62 nM
Kd (fibrin [1]; thiolation buffers: No Detergent, read-out: KD @ 37° C.): 1.9 nM
Kd (fibrin [3]): 3.91 nM
Substance: tPA(P)-ELIP: PPACK-inactivated tPA conjugated by thioether linkage to MPB-ELIP (PC:MPB-PE:DPPG:CH 69:8:8:15); made without detergent or with 0.01% Tween 20
